Laboratory results taken from paper PMC2528291 (Journal of molecular biology, 2001).
Like-named read-outs stand apart in the source and are kept apart here.

Tests used:
Assay in all cases: SEC
[1] = target: flagellin (FliC) of S. typhimurium SJW1103 (S. typhimurium (endogenous in SJW1103)) (UniProt P06179)
SEC [2] = target: the molecule itself
SEC [3] = target: the molecule itself; remark: listed apart in the source

Sequence of flagellin (FliC) of S. typhimurium SJW1103 (S. typhimurium (endogenous in SJW1103)) (P06179 whole entry): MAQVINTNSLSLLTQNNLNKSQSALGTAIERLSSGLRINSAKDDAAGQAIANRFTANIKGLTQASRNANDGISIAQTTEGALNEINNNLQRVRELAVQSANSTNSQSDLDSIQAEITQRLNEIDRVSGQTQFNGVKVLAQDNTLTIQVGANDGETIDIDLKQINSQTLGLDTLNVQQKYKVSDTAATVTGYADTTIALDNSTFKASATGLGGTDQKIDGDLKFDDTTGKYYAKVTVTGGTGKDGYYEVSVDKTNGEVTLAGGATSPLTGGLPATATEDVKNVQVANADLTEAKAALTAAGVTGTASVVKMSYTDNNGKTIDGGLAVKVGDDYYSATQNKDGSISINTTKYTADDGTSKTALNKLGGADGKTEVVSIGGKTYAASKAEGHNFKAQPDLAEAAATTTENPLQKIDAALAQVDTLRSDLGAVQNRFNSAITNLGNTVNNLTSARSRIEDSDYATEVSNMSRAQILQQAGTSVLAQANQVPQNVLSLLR

His6-FliS (from pET-FliS) (from UniProt P26609 1-135) (natural protein)
stoichiometry N (FliS per FliC) [1]: 2

B1: FliS (native, cytosolic, of S. typhimurium SJW1103) (natural protein, S. typhimurium (endogenous in SJW1103), UniProt P26609 1-135, looked up)
chain: MYTASGIKAYAQVSVESAVMSASPHQLIEMLFDGANSALVRARLFLEQGDVVAKGEALSKAINIIDNGLKAGLDQEKGGEIATNLSELYDYMIRRLLQANLRNDAQAIEEVEGLLSNIAEAWKQISPKASFQESR
stoichiometry N (SEC [2]): 2

B2: His6-FliS (from pET-FliS) (natural protein, S. typhimurium, UniProt P26609 1-135, looked up)
chain: B1 chain
modifications: [35S]methionine label (in the affinity blots only)
stoichiometry N (SEC [3]): 2
